Experimental data taken from PMC9482650, “Quantitative fragmentomics allow affinity mapping of interactomes” (Nature Communications, 2022).

T1: SYNJ2BP, P57105
T1 sequence (P57105 8-110, limits assumed, looked up): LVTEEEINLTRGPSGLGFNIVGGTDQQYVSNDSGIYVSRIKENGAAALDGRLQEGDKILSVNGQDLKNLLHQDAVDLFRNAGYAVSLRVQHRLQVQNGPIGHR

T2: GRIP1_3, Q9Y3R0
T2 sequence (Q9Y3R0 247-346, limits assumed, looked up): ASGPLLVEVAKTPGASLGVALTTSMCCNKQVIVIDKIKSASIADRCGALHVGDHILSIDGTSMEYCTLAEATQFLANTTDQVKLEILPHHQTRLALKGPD

T3: MPDZ_12, O75970
T3 sequence (O75970 1857-1958, limits assumed, looked up): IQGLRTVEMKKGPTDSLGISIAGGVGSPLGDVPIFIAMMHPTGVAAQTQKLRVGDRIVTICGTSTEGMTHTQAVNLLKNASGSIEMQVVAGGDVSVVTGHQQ

T4: SHANK1, Q9Y566
T4 sequence (Q9Y566 658-767, limits assumed, looked up): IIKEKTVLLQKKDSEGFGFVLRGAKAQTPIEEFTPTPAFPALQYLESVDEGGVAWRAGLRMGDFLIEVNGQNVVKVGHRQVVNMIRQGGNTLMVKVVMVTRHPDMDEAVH

T5: DFNB31_1, Q9P202
T5 sequence (Q9P202 135-233, limits assumed, looked up): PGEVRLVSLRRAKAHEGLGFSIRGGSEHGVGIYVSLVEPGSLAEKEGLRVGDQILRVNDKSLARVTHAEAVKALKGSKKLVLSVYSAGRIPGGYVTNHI

T6: PTPN13_1, Q12923
T6 sequence (Q12923 1088-1188, limits assumed, looked up): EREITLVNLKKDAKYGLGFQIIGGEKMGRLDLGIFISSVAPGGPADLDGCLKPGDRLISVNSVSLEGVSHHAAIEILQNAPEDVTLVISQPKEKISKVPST

T7: DFNB31_3, Q9P202
T7 sequence (Q9P202 811-907, limits assumed, looked up): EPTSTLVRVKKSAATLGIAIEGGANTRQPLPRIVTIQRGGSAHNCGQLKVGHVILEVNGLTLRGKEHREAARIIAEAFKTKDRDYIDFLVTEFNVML

T8: APBA1_2, Q02410
T8 sequence (Q02410 742-832, limits assumed, looked up): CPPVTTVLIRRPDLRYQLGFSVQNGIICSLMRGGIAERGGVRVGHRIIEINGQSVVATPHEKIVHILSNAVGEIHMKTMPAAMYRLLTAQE

T9: PDZD7_3, Q9H5P4
T9 sequence (Q9H5P4 857-944, limits assumed, looked up): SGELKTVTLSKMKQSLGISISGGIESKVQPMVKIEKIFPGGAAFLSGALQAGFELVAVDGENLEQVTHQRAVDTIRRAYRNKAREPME

T10: GRIP1_7, Q9Y3R0
T10 sequence (Q9Y3R0 999-1096, limits assumed, looked up): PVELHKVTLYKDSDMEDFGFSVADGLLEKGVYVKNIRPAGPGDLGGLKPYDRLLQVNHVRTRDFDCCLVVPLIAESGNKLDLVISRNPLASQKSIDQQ

T11: APBA3_1, O96018
T11 sequence (O96018 389-490, limits assumed, looked up): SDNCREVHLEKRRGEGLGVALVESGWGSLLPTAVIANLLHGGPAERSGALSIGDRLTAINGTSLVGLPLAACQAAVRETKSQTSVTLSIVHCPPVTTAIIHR

T12: MPP6, Q9NZW5
T12 sequence (Q9NZW5 125-219, limits assumed, looked up): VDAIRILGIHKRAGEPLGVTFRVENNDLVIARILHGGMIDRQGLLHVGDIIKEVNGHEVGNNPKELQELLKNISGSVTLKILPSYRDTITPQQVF

B1: SLC15A2, Q16348 (peptide)
chain: IKLETKKTKL
B2: TMEM178A, Q8NBL3 (peptide)
chain: QLKSGRDSTV
B3: CLDN20, P56880 (peptide)
chain: NSTHNLKDYV

molecular target: GRID2IP_2, A4D2P6; test: holdup assay; parameters: key: below the threshold = too weak to quantify, mostly under pKd 3.1 to 4; conditions: plain residues with an end cap or a label only (N-terminal biotin on a linker: ado-ado)
Sequence (A4D2P6 272-370): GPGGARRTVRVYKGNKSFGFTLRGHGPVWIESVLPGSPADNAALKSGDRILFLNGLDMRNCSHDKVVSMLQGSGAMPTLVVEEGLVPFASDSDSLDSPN

Binder	pKd
B1	4.71
B2	3.54
B3	below the threshold

molecular target: T1, SYNJ2BP, P57105; test: holdup assay; parameters: key: below the threshold = too weak to quantify, mostly under pKd 3.1 to 4; conditions: plain residues with an end cap or a label only (N-terminal biotin on a linker: ado-ado)

Binder	pKd
B1	below the threshold
B2	4.48
B3	below the threshold

molecular target: GRID2IP_1, A4D2P6; test: holdup assay; parameters: key: below the threshold = too weak to quantify, mostly under pKd 3.1 to 4; conditions: plain residues with an end cap or a label only (N-terminal biotin on a linker: ado-ado)
Sequence (A4D2P6 1-87): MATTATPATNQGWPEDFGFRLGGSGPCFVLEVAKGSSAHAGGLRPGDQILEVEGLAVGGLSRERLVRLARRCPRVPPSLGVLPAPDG

Binder	pKd
B1	below the threshold
B2	below the threshold
B3	below the threshold

molecular target: T2, GRIP1_3, Q9Y3R0; test: holdup assay; parameters: key: below the threshold = too weak to quantify, mostly under pKd 3.1 to 4; conditions: plain residues with an end cap or a label only (N-terminal biotin on a linker: ado-ado)

Binder	pKd
B1	below the threshold
B2	below the threshold
B3	below the threshold

molecular target: TJP1_3, Q07157; test: holdup assay; parameters: key: below the threshold = too weak to quantify, mostly under pKd 3.1 to 4; conditions: plain residues with an end cap or a label only (N-terminal biotin on a linker: ado-ado)
Sequence (Q07157 416-512): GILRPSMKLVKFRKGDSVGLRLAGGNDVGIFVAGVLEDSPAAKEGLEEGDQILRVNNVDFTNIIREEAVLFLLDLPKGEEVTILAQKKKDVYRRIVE

Binder	pKd
B1	3.54
B2	3.5
B3	below the threshold

molecular target: AHNAK1, Q09666; test: holdup assay; parameters: key: below the threshold = too weak to quantify, mostly under pKd 3.1 to 4; conditions: plain residues with an end cap or a label only (N-terminal biotin on a linker: ado-ado)
Sequence (Q09666 4-100): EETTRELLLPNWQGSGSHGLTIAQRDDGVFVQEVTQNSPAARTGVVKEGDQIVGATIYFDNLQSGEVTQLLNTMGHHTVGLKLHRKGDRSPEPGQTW

Binder	pKd
B1	below the threshold
B2	3.55
B3	below the threshold

molecular target: MAGI1_2, Q96QZ7; test: holdup assay; parameters: key: below the threshold = too weak to quantify, mostly under pKd 3.1 to 4; conditions: plain residues with an end cap or a label only (N-terminal biotin on a linker: ado-ado)
Sequence (Q96QZ7 456-580): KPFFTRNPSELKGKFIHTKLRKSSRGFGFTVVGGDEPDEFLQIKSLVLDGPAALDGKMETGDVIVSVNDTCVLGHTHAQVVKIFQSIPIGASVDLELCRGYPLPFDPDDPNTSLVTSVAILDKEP

Binder	pKd
B1	3.58
B2	3.49
B3	below the threshold

molecular target: T3, MPDZ_12, O75970; test: holdup assay; parameters: key: below the threshold = too weak to quantify, mostly under pKd 3.1 to 4; conditions: plain residues with an end cap or a label only (N-terminal biotin on a linker: ado-ado)

Binder	pKd
B1	below the threshold
B2	below the threshold
B3	below the threshold

molecular target: T4, SHANK1, Q9Y566; test: holdup assay; parameters: key: below the threshold = too weak to quantify, mostly under pKd 3.1 to 4; conditions: plain residues with an end cap or a label only (N-terminal biotin on a linker: ado-ado)

Binder	pKd
B1	4.85
B2	below the threshold
B3	below the threshold

molecular target: T5, DFNB31_1, Q9P202; test: holdup assay; parameters: key: below the threshold = too weak to quantify, mostly under pKd 3.1 to 4; conditions: plain residues with an end cap or a label only (N-terminal biotin on a linker: ado-ado)

Binder	pKd
B1	3.79
B2	3.6
B3	below the threshold

molecular target: PDZRN4_1, Q6ZMN7; test: holdup assay; parameters: key: below the threshold = too weak to quantify, mostly under pKd 3.1 to 4; conditions: plain residues with an end cap or a label only (N-terminal biotin on a linker: ado-ado)
Sequence (Q6ZMN7 213-318): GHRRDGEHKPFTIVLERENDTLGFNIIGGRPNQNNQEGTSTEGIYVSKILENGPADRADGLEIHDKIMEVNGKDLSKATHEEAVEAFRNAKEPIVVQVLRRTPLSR

Binder	pKd
B1	3.56
B2	3.53
B3	below the threshold

molecular target: T6, PTPN13_1, Q12923; test: holdup assay; parameters: key: below the threshold = too weak to quantify, mostly under pKd 3.1 to 4; conditions: plain residues with an end cap or a label only (N-terminal biotin on a linker: ado-ado)

Binder	pKd
B1	3.56
B2	3.57
B3	below the threshold

molecular target: DLG1_1, Q12959; test: holdup assay; parameters: key: below the threshold = too weak to quantify, mostly under pKd 3.1 to 4; conditions: plain residues with an end cap or a label only (N-terminal biotin on a linker: ado-ado)

Binder	pKd
B1	below the threshold
B2	4.11
B3	below the threshold

molecular target: T7, DFNB31_3, Q9P202; test: holdup assay; parameters: key: below the threshold = too weak to quantify, mostly under pKd 3.1 to 4; conditions: plain residues with an end cap or a label only (N-terminal biotin on a linker: ado-ado)

Binder	pKd
B1	4.16
B2	below the threshold
B3	below the threshold

molecular target: NHERF2_2, Q15599; test: holdup assay; parameters: key: below the threshold = too weak to quantify, mostly under pKd 3.1 to 4; conditions: plain residues with an end cap or a label only (N-terminal biotin on a linker: ado-ado)
Sequence (Q15599 142-238): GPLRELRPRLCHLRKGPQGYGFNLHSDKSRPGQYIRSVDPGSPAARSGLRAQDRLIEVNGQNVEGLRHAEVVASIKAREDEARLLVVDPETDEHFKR

Binder	pKd
B1	4.32
B2	3.55
B3	below the threshold

molecular target: FRMPD2_3, Q68DX3; test: holdup assay; parameters: key: below the threshold = too weak to quantify, mostly under pKd 3.1 to 4; conditions: plain residues with an end cap or a label only (N-terminal biotin on a linker: ado-ado)
Sequence (Q68DX3 1073-1166): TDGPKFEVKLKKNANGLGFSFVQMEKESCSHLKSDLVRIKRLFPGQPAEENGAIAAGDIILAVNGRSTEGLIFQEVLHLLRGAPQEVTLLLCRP

Binder	pKd
B1	below the threshold
B2	below the threshold
B3	below the threshold

molecular target: Inadl_8, Q8NI35; test: holdup assay; parameters: key: below the threshold = too weak to quantify, mostly under pKd 3.1 to 4; conditions: plain residues with an end cap or a label only (N-terminal biotin on a linker: ado-ado)
Sequence (Q8NI35 1425-1530): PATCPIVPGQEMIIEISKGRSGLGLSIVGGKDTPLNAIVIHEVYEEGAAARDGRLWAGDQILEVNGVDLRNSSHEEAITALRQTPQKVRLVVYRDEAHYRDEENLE

Binder	pKd
B1	3.76
B2	3.7
B3	3.82

molecular target: DLG4_3, P78352; test: holdup assay; parameters: key: below the threshold = too weak to quantify, mostly under pKd 3.1 to 4; conditions: plain residues with an end cap or a label only (N-terminal biotin on a linker: ado-ado)
Sequence (P78352 306-403): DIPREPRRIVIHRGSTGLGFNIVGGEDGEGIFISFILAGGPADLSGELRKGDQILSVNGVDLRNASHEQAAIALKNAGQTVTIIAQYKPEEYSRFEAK

Binder	pKd
B1	below the threshold
B2	below the threshold
B3	below the threshold

molecular target: T8, APBA1_2, Q02410; test: holdup assay; parameters: key: below the threshold = too weak to quantify, mostly under pKd 3.1 to 4; conditions: plain residues with an end cap or a label only (N-terminal biotin on a linker: ado-ado)

Binder	pKd
B1	3.67
B2	3.63
B3	3.69

molecular target: MAGI1_1, Q96QZ7; test: holdup assay; parameters: key: below the threshold = too weak to quantify, mostly under pKd 3.1 to 4; conditions: plain residues with an end cap or a label only (N-terminal biotin on a linker: ado-ado)
Sequence (Q96QZ7 1-106): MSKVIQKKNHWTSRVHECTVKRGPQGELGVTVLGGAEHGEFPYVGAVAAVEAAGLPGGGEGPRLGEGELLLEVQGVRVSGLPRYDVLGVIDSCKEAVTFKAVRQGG

Binder	pKd
B1	below the threshold
B2	below the threshold
B3	below the threshold

molecular target: DLG4_2, P78352; test: holdup assay; parameters: key: below the threshold = too weak to quantify, mostly under pKd 3.1 to 4; conditions: plain residues with an end cap or a label only (N-terminal biotin on a linker: ado-ado)
Sequence (P78352 155-259): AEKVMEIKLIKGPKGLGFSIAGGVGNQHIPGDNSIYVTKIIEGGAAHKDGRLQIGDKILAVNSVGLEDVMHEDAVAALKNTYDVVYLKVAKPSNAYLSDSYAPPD

Binder	pKd
B1	3.87
B2	4.61
B3	below the threshold

molecular target: DLG5_1, Q8TDM6; test: holdup assay; parameters: key: below the threshold = too weak to quantify, mostly under pKd 3.1 to 4; conditions: plain residues with an end cap or a label only (N-terminal biotin on a linker: ado-ado)
Sequence (Q8TDM6 617-713): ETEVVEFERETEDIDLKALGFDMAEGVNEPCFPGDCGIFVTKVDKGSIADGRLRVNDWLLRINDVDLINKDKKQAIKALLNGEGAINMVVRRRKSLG

Binder	pKd
B1	3.53
B2	3.83
B3	below the threshold

molecular target: T9, PDZD7_3, Q9H5P4; test: holdup assay; parameters: key: below the threshold = too weak to quantify, mostly under pKd 3.1 to 4; conditions: plain residues with an end cap or a label only (N-terminal biotin on a linker: ado-ado)

Binder	pKd
B1	4.75
B2	4.19
B3	below the threshold

molecular target: T10, GRIP1_7, Q9Y3R0; test: holdup assay; parameters: key: below the threshold = too weak to quantify, mostly under pKd 3.1 to 4; conditions: plain residues with an end cap or a label only (N-terminal biotin on a linker: ado-ado)

Binder	pKd
B1	below the threshold
B2	below the threshold
B3	below the threshold

molecular target: T11, APBA3_1, O96018; test: holdup assay; parameters: key: below the threshold = too weak to quantify, mostly under pKd 3.1 to 4; conditions: plain residues with an end cap or a label only (N-terminal biotin on a linker: ado-ado)

Binder	pKd
B1	below the threshold
B2	below the threshold
B3	below the threshold

molecular target: T12, MPP6, Q9NZW5; test: holdup assay; parameters: key: below the threshold = too weak to quantify, mostly under pKd 3.1 to 4; conditions: plain residues with an end cap or a label only (N-terminal biotin on a linker: ado-ado)

Binder	pKd
B1	below the threshold
B2	3.8
B3	below the threshold
